Key:
[1] = molecular target: calmodulin targets in the leading lamellae (region of transverse fibers) of Swiss 3T3 fibroblasts during wound healing; assay: steady state fluorescence anisotropy imaging microscopy
[2] = molecular target: target proteins of calmodulin in serum-deprived and serum-stimulated Swiss 3T3 fibroblasts; assay: as above

- maximum fraction bound (fB) [1]: 50%
- fraction bound (fB) [2]: < 10%
- maximum fraction bound (fB) [2]: 95%
Substance: FITC-calmodulin (from UniProt P62157 1-149) (natural protein)

— PMC2119692
